What was measured:
[1] = tested on: mice bearing B16F10 tumors; assay: in vivo; conditions: mouse
Procedure: (§1) At the day of biodistribution mice were injected in the tail vein with ~20 kBq of ^225Accrown-αMSH (range: 10.8-31.6 kBq). […] Blood was collected by cardiac puncture and a full biodistribution performed. Organs were cleaned from blood, weighed and the activity determined using a calibrated gamma counter (Packard Cobra II Auto-gamma counter, Perkin Elmer, Waltham, MA, USA) using three energy windows: 60-120 keV (window A), 180-260 keV (window B), and 400-480 keV (window C). Counting was performed after 6 hours post-sacrifice to ensure equilibrium of the ^225Ac decay chain. Counts were decay corrected from the time of sacrifice and total organ weights were used for the calculation of injected dose per gram of tissue (% ID/g). No differences were noted between the data calculated by three different windows; therefore, the biodistributions are reported using the data acquired using window A. A similar study to Example 5.1 was conducted using ^213Bi instead of ^225Ac.

[2] = in vivo; design: species or system mice; conditions: mouse, iv, total radioactivity
Procedure: as §1

[3] = in vivo; design: species or system mice; conditions: mouse, iv, total radioactivity; remark: listed apart in the source
Procedure: as §1, with “A. The biological distribution of ^225Ac-crown-TATE was examined by the inventors following” for “A. A”, “similar protocols as described above for” for “similar study to”, “Example 5.1.” for “Example 5.1 was conducted using ^213Bi instead of ^225Ac.”

Structure (SMILES): CCCC[C@H](NC(=O)CN1CCC(NC(=O)CN2CCOCCN(CC(=O)O)CCN(CC(=O)O)CCOCCN(CC(=O)O)CC2)CC1)C(=O)N[C@H]1CC(=O)NCCCC[C@@H](C(N)=O)NC(=O)[C@H](Cc2c[nH]c3ccccc23)NC(=O)[C@H](CCCNC(=N)N)NC(=O)[C@@H](Cc2ccccc2)NC(=O)[C@H](Cc2c[nH]cn2)NC1=O [^213Bi-crown-αMSH, metal not drawn]
- T/Blood (ratio tumor versus blood) [1]: 12.15
- T/Bone (ratio tumor versus bone) [1]: 23.41
- T/Kidney (ratio tumor versus kidney) [1]: 0.99
- T/Liver (ratio tumor versus liver) [1]: 5.44
- T/Muscle (ratio tumor versus muscle) [1]: 84.48
- tissue uptake at 1 h ([2]; Biodistribution: Bladder): 5.48 %ID/g
- tissue uptake at 1 h ([2]; Biodistribution: Blood): 0.5 %ID/g
- tissue uptake at 1 h ([2]; Biodistribution: Bone): 0.41 %ID/g
- excreta dose per gram or mL at 1 h ([2]; Biodistribution: Feces): 0.23 %ID/g
- tissue uptake at 1 h ([2]; Biodistribution: Heart): 0.09 %ID/g
- tissue uptake at 1 h ([2]; Biodistribution: Kidneys): 6.02 %ID/g
- tissue uptake at 1 h ([2]; Biodistribution: Lg Intestine): 0.56 %ID/g
- tissue uptake at 1 h ([2]; Biodistribution: Liver): 1.09 %ID/g
- tissue uptake at 1 h ([2]; Biodistribution: Lungs): 0.45 %ID/g
- tissue uptake at 1 h ([2]; Biodistribution: Muscle): 0.08 %ID/g
- tissue uptake at 1 h ([2]; Biodistribution: Pancreas): 0.15 %ID/g
- tissue uptake at 1 h ([2]; Biodistribution: Sm Intestine): 0.34 %ID/g
- tissue uptake at 1 h ([2]; Biodistribution: Spleen): 0.36 %ID/g
- tissue uptake at 1 h ([2]; Biodistribution: Stomach): 0.67 %ID/g
- tissue uptake at 1 h ([2]; Biodistribution: Tail): 2.56 %ID/g
- tissue uptake at 1 h ([2]; Biodistribution: Thyroids): 0.74 %ID/g
- tissue uptake at 1 h ([2]; Biodistribution: Tumour): 5.9 %ID/g
- excreta dose per gram or mL at 1 h ([2]; Biodistribution: Urine): 93.2 %ID/g

Structure (SMILES): C[C@@H](O)[C@H](NC(=O)[C@@H]1CSSC[C@H](NC(=O)[C@@H](Cc2ccccc2)NC(=O)CN2CCOCCN(CC(=O)O)CCN(CC(=O)O)CCOCCN(CC(=O)O)CC2)C(=O)N[C@@H](Cc2ccc(O)cc2)C(=O)N[C@H](Cc2c[nH]c3ccccc23)C(=O)N[C@@H](CCCCN)C(=O)N[C@@H]([C@@H](C)O)C(=O)N1)C(=O)O [^225Ac-crown-TATE, metal not drawn]
- tissue uptake at 1 h ([3]; Biodistribution: Andrenals): 1.34 %ID/g
- tissue uptake at 4 h ([3]; Biodistribution: Andrenals): 1.37 %ID/g
- tissue uptake at 24 h ([3]; Biodistribution: Andrenals): 1.77 %ID/g
- tissue uptake at 72 h ([3]; Biodistribution: Andrenals): 1.37 %ID/g
- tissue uptake at 1 h ([3]; Biodistribution: Bladder): 7.09 %ID/g
- tissue uptake at 4 h ([3]; Biodistribution: Bladder): 1.04 %ID/g
- tissue uptake at 24 h ([3]; Biodistribution: Bladder): 0.33 %ID/g
- tissue uptake at 72 h ([3]; Biodistribution: Bladder): 0.37 %ID/g
- tissue uptake at 1 h ([3]; Biodistribution: Blood): 0.54 %ID/g
- tissue uptake at 4 h ([3]; Biodistribution: Blood): 0.09 %ID/g
- tissue uptake at 24 h ([3]; Biodistribution: Blood): 0.03 %ID/g
- tissue uptake at 72 h ([3]; Biodistribution: Blood): 0.02 %ID/g
- tissue uptake at 1 h ([3]; Biodistribution: Bone): 0.35 %ID/g
- tissue uptake at 4 h ([3]; Biodistribution: Bone): 0.78 %ID/g
- tissue uptake at 24 h ([3]; Biodistribution: Bone): 0.38 %ID/g
- tissue uptake at 72 h ([3]; Biodistribution: Bone): 0.78 %ID/g
- tissue uptake at 1 h ([3]; Biodistribution: Brain): 0.03 %ID/g
- tissue uptake at 4 h ([3]; Biodistribution: Brain): 0.01 %ID/g
- tissue uptake at 24 h ([3]; Biodistribution: Brain): 0.01 %ID/g
- tissue uptake at 72 h ([3]; Biodistribution: Brain): 0.01 %ID/g
- excreta dose per gram or mL at 1 h ([3]; Biodistribution: Feces): 0.22 %ID/g
- excreta dose per gram or mL at 4 h ([3]; Biodistribution: Feces): 0.27 %ID/g
- excreta dose per gram or mL at 24 h ([3]; Biodistribution: Feces): 0.53 %ID/g
- excreta dose per gram or mL at 72 h ([3]; Biodistribution: Feces): 0.26 %ID/g
- tissue uptake at 1 h ([3]; Biodistribution: Gallbladder): 0.68 %ID/g
- tissue uptake at 4 h ([3]; Biodistribution: Gallbladder): 0.52 %ID/g
- tissue uptake at 24 h ([3]; Biodistribution: Gallbladder): 0.99 %ID/g
- tissue uptake at 72 h ([3]; Biodistribution: Gallbladder): 1.25 %ID/g
- tissue uptake at 1 h ([3]; Biodistribution: Heart): 0.32 %ID/g
- tissue uptake at 4 h ([3]; Biodistribution: Heart): 0.15 %ID/g
- tissue uptake at 24 h ([3]; Biodistribution: Heart): 0.18 %ID/g
- tissue uptake at 72 h ([3]; Biodistribution: Heart): 0.19 %ID/g
- tissue uptake at 1 h ([3]; Biodistribution: Kidneys): 20 %ID/g
- tissue uptake at 4 h ([3]; Biodistribution: Kidneys): 20.7 %ID/g
- tissue uptake at 24 h ([3]; Biodistribution: Kidneys): 11.5 %ID/g
- tissue uptake at 72 h ([3]; Biodistribution: Kidneys): 7.09 %ID/g
- tissue uptake at 1 h ([3]; Biodistribution: Lg Intestine): 1.55 %ID/g
- tissue uptake at 4 h ([3]; Biodistribution: Lg Intestine): 1.58 %ID/g
- tissue uptake at 24 h ([3]; Biodistribution: Lg Intestine): 1.31 %ID/g
- tissue uptake at 72 h ([3]; Biodistribution: Lg Intestine): 1.02 %ID/g
- tissue uptake at 1 h ([3]; Biodistribution: Liver): 1.38 %ID/g
- tissue uptake at 4 h ([3]; Biodistribution: Liver): 1 %ID/g
- tissue uptake at 24 h ([3]; Biodistribution: Liver): 1.77 %ID/g
- tissue uptake at 72 h ([3]; Biodistribution: Liver): 2.43 %ID/g
- tissue uptake at 1 h ([3]; Biodistribution: Lungs): 3.4 %ID/g
- tissue uptake at 4 h ([3]; Biodistribution: Lungs): 3.37 %ID/g
- tissue uptake at 24 h ([3]; Biodistribution: Lungs): 2.31 %ID/g
- tissue uptake at 72 h ([3]; Biodistribution: Lungs): 2 %ID/g
- tissue uptake at 1 h ([3]; Biodistribution: Muscle): 0.1 %ID/g
- tissue uptake at 4 h ([3]; Biodistribution: Muscle): 0.02 %ID/g
- tissue uptake at 24 h ([3]; Biodistribution: Muscle): 0.02 %ID/g
- tissue uptake at 72 h ([3]; Biodistribution: Muscle): 0.04 %ID/g
- tissue uptake at 1 h ([3]; Biodistribution: Pancreas): 4.39 %ID/g
- tissue uptake at 4 h ([3]; Biodistribution: Pancreas): 3.24 %ID/g
- tissue uptake at 24 h ([3]; Biodistribution: Pancreas): 1.22 %ID/g
- tissue uptake at 72 h ([3]; Biodistribution: Pancreas): 1.07 %ID/g
- tissue uptake at 1 h ([3]; Biodistribution: Sm Intestine): 0.88 %ID/g
- tissue uptake at 4 h ([3]; Biodistribution: Sm Intestine): 0.74 %ID/g
- tissue uptake at 24 h ([3]; Biodistribution: Sm Intestine): 0.51 %ID/g
- tissue uptake at 72 h ([3]; Biodistribution: Sm Intestine): 0.49 %ID/g
- tissue uptake at 1 h ([3]; Biodistribution: Spleen): 0.48 %ID/g
- tissue uptake at 4 h ([3]; Biodistribution: Spleen): 0.36 %ID/g
- tissue uptake at 24 h ([3]; Biodistribution: Spleen): 0.23 %ID/g
- tissue uptake at 72 h ([3]; Biodistribution: Spleen): 0.35 %ID/g
- tissue uptake at 1 h ([3]; Biodistribution: Stomach): 5.04 %ID/g
- tissue uptake at 4 h ([3]; Biodistribution: Stomach): 3.7 %ID/g
- tissue uptake at 24 h ([3]; Biodistribution: Stomach): 2.75 %ID/g
- tissue uptake at 72 h ([3]; Biodistribution: Stomach): 2.25 %ID/g
- tissue uptake at 1 h ([3]; Biodistribution: Tail): 1.56 %ID/g
- tissue uptake at 4 h ([3]; Biodistribution: Tail): 0.42 %ID/g
- tissue uptake at 24 h ([3]; Biodistribution: Tail): 0.35 %ID/g
- tissue uptake at 72 h ([3]; Biodistribution: Tail): 0.34 %ID/g
- tissue uptake at 1 h ([3]; Biodistribution: Tumour): 5.86 %ID/g
- tissue uptake at 4 h ([3]; Biodistribution: Tumour): 5.15 %ID/g
- tissue uptake at 24 h ([3]; Biodistribution: Tumour): 5.7 %ID/g
- tissue uptake at 72 h ([3]; Biodistribution: Tumour): 4.97 %ID/g
- excreta dose per gram or mL at 1 h ([3]; Biodistribution: Urine): 108 %ID/g
- excreta dose per gram or mL at 4 h ([3]; Biodistribution: Urine): 13.2 %ID/g
- excreta dose per gram or mL at 24 h ([3]; Biodistribution: Urine): 0.87 %ID/g
- excreta dose per gram or mL at 72 h ([3]; Biodistribution: Urine): 0.2 %ID/g

— patent publication US20230270892A1, “CHELATOR COMPOSITIONS FOR RADIOMETALS AND METHODS OF USING SAME” (TRIUMF INC., priority 2020, published 2023)
